# Test results from paper PMC4906154, “Mitochondrial disease-related mutations at the cytochrome b-iron–sulfur protein (ISP) interface: Molecular effects on the large-scale motion of ISP and superoxide generation studied in Rhodobacter capsulatus cytochrome bc1^” (Biochimica et Biophysica Acta, 2016).
# Positions count from the first letter of the chain named. In names and notes the source's numbering stands.
# B1: cytochrome bc1 (R. capsulatus bc1 complex) (Rhodobacter capsulatus) (protein)
# chain 1: MSGIPHDHYEPKTGIEKWLHDRLPIVGLVYDTIMIPTPKNLNWWWIWGIVLAFTLVLQIVTGIVLAIDYTPHVDLAFASVEHIMRDVNGGWAMRYIHANGASLFFLAVYIHIFRGLYYGSYKAPREITWIVGMVIYLLMMGTAFMGYVLPWGQMSFWGATVITGLFGAIPGIGPSIQAWLLGGPAVDNATLNRFFSLHYLLPFVIAALVAIHIWAFHTTGNNNPTGVEVRRTSKADAEKDTLPFWPYFVIKDLFALALVLLGFFAVVAYMPNYLGHPDNYIQANPLSTPAHIVPEWYFLPFYAILRAFAADVWVVILVDGLTFGIVDAKFFGVIAMFGAIAVMALAPWLDTSKVRSGAYRPKFRMWFWFLVLDFVVLTWVGAMPTEYPYDWISLIASTYWFAYFLVILPLLGATEKPEPIPASIEEDFNSHYGNPAE
# chain 2: MSHAEDNAGTRRDFLYHATAATGVVVTGAAVWPLINQMNASADVKAMSSIFVDVSAVEVGTQLTVKWRGKPVFIRRRDEKDIELARSVPLGALRDTSAENANKPGAEATDENRSLAAFDGTNTGEWLVMLGVCTHLGCVPMGDKSGDFGGWFCPCHGSHYDSAGRIRKGPAPRNLDIPVAAFVDETTIKLG
# notes: petABC operon from plasmid pPET1, C-terminal Strep-tag on cytochrome b, expressed in R. capsulatus MT-RBC1 (host), DDM-solubilised from chromatophores, Strep-tag purified; homodimer of 3 catalytic subunits; with Cytochrome c1
# B2: cytochrome bc1 (R. capsulatus bc1 complex) (Rhodobacter capsulatus; P0CY47:G332D) (protein)
# chain 1: B1 chain 1 with G332D
# chain 2: B1 chain 2
# notes: as for B1
# Substrate: CCCCCCCCCCc1c(C)c(O)c(OC)c(OC)c1O
# Assay: steady-state cytochrome c reduction, spectroscopic, Michaelis-Menten fit
# Type: biochemical, Rhodobacter capsulatus
# Conditions: 20 μM bovine heart cytochrome c, 50 mM Tris pH 8.0, 0.01% DDM, 100 mM NaCl, DBH2 0.5-20 μM, Qo site, turnover given as Vmax
Protein,Km [µM],kcat [s⁻¹]
B1,2.3 ± 0.5,146 ± 9
B2,1.1 ± 0.2,45 ± 2
